Changes are numbered by the printed parent chain. Names and notes keep the numbering of the source.
B1: BT61 Lot 52690 (antibody, human IgG1, kappa, V domains shown)
VH: EEQLVESGGGLVKPGGSLRLSCAASGFSFSDCRMYWLRQAPGKGLEWIGVISVKSENYGANYAESVRGRFTISRDDSKNTVYLQMNSLKTEDTAVYYCSASYYRYDVGAWFAYWGQGTLVTVSS
VL: DIVMTQSPDSLAVSLGERATINCRASKSVSTSGYSYIYWYQQKPGQPPKLLIYLASILESGVPDRFSGSGSGTDFTLTISSLQAEDVAVYYCQHSRELPWTFGQGTKVEIKR
B2: LC master HC A63G (antibody, V domains shown)
VH: B1 VH with A63G
VL: B1 VL
B3: LC master HC R33K-A63G (antibody, V domains shown)
VH: B1 VH with R33K, A63G
VL: B1 VL
B4: LC L98I HC R33K (antibody, V domains shown)
VH: B1 VH with R33K
VL: B1 VL with L98I
B5: LC master HC R33K (antibody, V domains shown)
VH: B1 VH with R33K
VL: B1 VL
B6: HC master LC L98I (antibody, V domains shown)
VH: B1 VH
VL: B1 VL with L98I
B7: LC A55G HC R33K (antibody, V domains shown)
VH: B1 VH with R33K
VL: B1 VL with A55G
B8: LC G33A HC R33K (antibody, V domains shown)
VH: B1 VH with R33K
VL: B1 VL with G33A
B9: LC master HC Y105W (antibody, V domains shown)
VH: B1 VH with Y105W
VL: B1 VL
B10: LC master HC S101T (antibody, V domains shown)
VH: B1 VH with S101T
VL: B1 VL
B11: LC master HC master (antibody, human IgG1, kappa, V domains shown)
VH: B1 VH
VL: B1 VL
B12: BT061 variant LC master HC Y105W (antibody, V domains shown)
VH: B1 VH with Y105W
VL: B1 VL
notes: also called knockout mutant

Target: Human CD4 on CD4+CD25+ regulatory T cells of healthy donors (human, UniProt P01730 26-458)
Experiment: cell-based or functional assay

Binder | % Inh1 [%] | % Inh2 [%] | % Inh3 [%] | Avg. % inhibition [%]
B1 | 26.7 | 24.1 | 27.8 | 26.2
B2 | 33.1 | 25.5 | 19.5 | 26
B3 | 15.7 | 21.5 | 21.9 | 19.7
B4 | 9.2 | 24.3 | 24.6 | 19.4
B5 | 19.8 | 18.8 | 15 | 17.9
B6 | 12.2 | 8.4 | 18.2 | 12.9
B7 | 12.1 | 6.4 | 19.3 | 12.6
B8 | 6.5 | 7.9 | 9 | 7.8
B9 | 5.3 | 2 | 7 | 4.8
B10 | 3.1 | -3.6 | 0 | -0.2
B11 | – | 25.4 | 25.9 | 26.3

Target: T1, Human CD4 on CD4+CD25+ regulatory T cells (human, UniProt P01730 26-458)
T1 construct: CD4 on Tregs or T cells of healthy human donors
Experiment: in vitro assay with CD4+CD25+ regulatory T cells (allogeneic mixed lymphocyte reaction); no separate binding assay described
Protocol: CD4+ CD25+ regulatory T cells were freshly isolated from a first donor (donor A). PBMCs were obtained from EDTA-blood by density gradient centrifugation. […] Tregs were pre-incubated with or without plate-bound antibody for 2 days. The number and phenotype of Tregs was determined by six colour flow cytometry as previously described (Haas et al., 2007). Pre-incubated Tregs were transferred to responder T cells (second donor B) in the presence of T-cell depleted and irradiated PBMCs (first donor A). After stimulation, [³H] thymidine was added and proliferation of responder T cells was measured after five days.

Binder | binding result
B12 | no binding
